Data: article PMC6445123 (Scientific Reports, 2019)

Experiments:
[1] = target: T1, recombinant active Casp6 (Casp6-WT) (Homo sapiens, UniProt P55212, INS179NQTEKLDTNITEVD); assay: Fluorescence-based Ac-VEID-AFC cleavage assay (Casp6 activity, IC50 determination); format: biochemical; conditions: 10 µM Ac-VEID-AFC; for % Inhibition with 100 µM compound (fluorescence assay): 20 nM Casp6, relative to 1% DMSO control; for IC50: fluorescence assay, 20 nM Casp6 active sites, read-out: IC50
T1 construct: generating mainly large subunit with a linker (LS-L), small subunit (SS), and a minor amount of large subunit (LS); His (C); made in house; host or cells: E. coli BL21(DE3)pLysS
T1 sequence (P55212 24-193 limits assumed): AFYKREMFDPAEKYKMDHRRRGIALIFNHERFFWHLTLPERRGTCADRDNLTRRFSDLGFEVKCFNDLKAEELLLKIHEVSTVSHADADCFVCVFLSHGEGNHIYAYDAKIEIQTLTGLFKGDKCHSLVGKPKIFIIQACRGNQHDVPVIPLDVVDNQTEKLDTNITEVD
T1 sequence (P55212 194-293 limits assumed): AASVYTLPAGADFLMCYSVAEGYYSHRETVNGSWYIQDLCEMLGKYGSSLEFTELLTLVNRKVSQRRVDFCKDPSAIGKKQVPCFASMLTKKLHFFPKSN
Procedure: (§1) To assess the potency of in silico hits, a fluorescence-based Ac-VEID-AFC cleavage assay was used to measure recombinant active Casp6 reaction rate in the absence or presence of 100 µM concentration of compounds. A 30% inhibition cut off was arbitrarily chosen for further investigation of putative inhibitors. […] AFC signal interference by compound intrinsic fluorescence was ruled out (Fig. S4). Casp6 inhibition was confirmed for seven compounds (C7, C13, C14, S2, S10, S11 and S13) using a colorimetric Ac-VEID-pNA cleavage assay (Table 2, Fig. S3).
(§2) Casp6 active sites were quantified using zVAD-FMK (N-benzyloxycarbonyl-Val-Ala-Asp-(O-methyl)-fluoromethylketone, MP Biomedicals, Santa Ana, CA, USA)[51],[64]. Casp6 activity was measured in Stennicke’s buffer (SB: 20 mM piperazine-N,N′-bis-(2-ethanesulfonic acid) pH 7.2, 100 mM NaCl, 10 mM DTT, 1 mM EDTA, 0.1% 3-[(3-cholamidopropyl)-dimethylammonio]-2-hydroxy-1-propanesulfonic acid, 10% sucrose)[65] using 40 µM Ac-VEID-AFC (Ac-Val-Glu-Ile-Asp-7-Amino-4-trifluoromethylcoumarin, Enzo Life Sciences, Farmingdale, NY, USA)[64] and 10-250 nM active site titrated Casp6. Reactions were initiated by Ac-VEID-AFC addition and followed for 20 min at 37 °C in a black clear bottom 96-well microplate (Costar, Corning, NY, USA) in Synergy H4 Hybrid instrument (BioTek, Winooski, VT, USA) with excitation/emission at 380/505 nm. Released AFC was calculated from AFC standard curve (0-25 µM). Casp6 VEIDase activity (released pmol AFC/min) was calculated from the initial linear reaction part. Ac-VEID-AFC hydrolysis initial velocities were measured with 10 nM active-site titrated Casp6 and […] Ac-VEID-AFC. Initial velocities v versus substrate concentration [S] were fit to a rectangular hyperbola using Michaelis-Menten equation in GraphPad Prism 5 (GraphPad Software, La Jolla, CA, USA).
(§3) In fluorescence-based Casp6 activity assay, 10 µM Ac-VEID-AFC was added to 20 nM Casp6 in SB with 100 μM compound and 1% dimethyl sulfoxide (DMSO), and reaction rate was measured for 20 min at 37 °C as above. Compound potency was calculated by normalising Ac-VEID-AFC cleavage rate to 1% DMSO control. In colorimetric Casp6 activity assay, 200 µM Ac-VEID-pNA (N-acetyl-Val-Glu-Ile-Asp-p-nitroanilide, Enzo Life Sciences) was added to 200 nM Casp6 in SB with 100 μM compound, and Ac-VEID-pNA cleavage rate was measured at 37 °C for 30 min in clear 96-well plate (Sartstedt, Nümbrecht, Germany) using Synergy H4 plate reader at 405 nm. Absorbance was converted to the released pNA amount based on a standard curve of 0–250 µM pNA. Cleavage rates were calculated from the linear assay phase and were normalised to 1% DMSO control. In Casp6-C163A cleavage assay, 0.5 ng/µl Casp6-WT was preincubated with 100 µM inhibitor, 5 µM Q-VD-OPh or 1% DMSO in SB (30 min, RT), followed by transfer on ice, addition of 0.5 µg/µl Casp6-C163A, and incubation (37 °C, 5, 10 and 15 min). Reactions were stopped by adding SDS-PAGE sample buffer (62.5 mM Tris pH 6.8, 2% SDS, 0.1 M DTT, 0.01% Bromphenol Blue, 10% glycerol) and heating (5 min, 95 °C). Samples (2 µl) were analysed on 15% SDS-PAGE gels, proteins were stained with Coomassie blue, and gels were de-stained with 10% acetic acid. The intensities of protein bands were quantified from scanned gels using ImageJ. The band intensity of Casp6-C163A without a prodomain was plotted against the time and the Casp6-C163A cleavage rates were calculated from the slopes of linear plots. The % activity of Casp6-WT in the presence of inhibitors was calculated relative to DMSO control.
IC50 values were determined against 20 nM Casp6 active sites in fluorescence-based Casp6 activity assay with 10 µM Ac-VEID-AFC and 1 nM-500 µM inhibitor. IC50 was calculated with GraphPad Prism 5 by a nonlinear regression fit for log inhibitor vs relative Casp6 activity (% DMSO control) using a Hill slope of – 1, and top and bottom constraints of 100 and 0, respectively.

recombinant active Casp6 = target: T2, recombinant active Casp6 (Homo sapiens, UniProt P55212, INS179NQTEKLDTNITEVD); assay: Colorimetric Ac-VEID-pNA cleavage assay; format: biochemical; conditions: 200 µM Ac-VEID-pNA, 200 nM Casp6
T2 construct: generating mainly large subunit with a linker (LS-L), small subunit (SS), and a minor amount of large subunit (LS); His (C); made in house; host or cells: E. coli BL21(DE3)pLysS
T2 sequence (P55212 24-193 limits assumed): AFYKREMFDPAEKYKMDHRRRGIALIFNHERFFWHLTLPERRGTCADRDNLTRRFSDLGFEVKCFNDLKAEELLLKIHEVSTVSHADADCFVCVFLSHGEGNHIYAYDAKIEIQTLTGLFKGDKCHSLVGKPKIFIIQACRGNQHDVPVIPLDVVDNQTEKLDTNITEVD
T2 sequence (P55212 194-293 limits assumed): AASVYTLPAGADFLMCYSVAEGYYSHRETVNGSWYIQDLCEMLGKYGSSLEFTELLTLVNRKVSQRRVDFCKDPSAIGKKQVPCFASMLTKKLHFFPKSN
Procedure: as §1, §3

[2] = target: the molecule itself; assay: crystal structure; apo, fully processed Casp6 variant; crystals from 100 mM sodium acetate pH 4.6, 2 M sodium chloride, hanging drop vapour diffusion at 22 °C
[3] = target: T3, Casp6-E35K large subunit with linker (LS-L) (human, UniProt P55212 24-193, E35K); assay: as above; conditions: both partners purified
T3 construct: human Caspase-6, large subunit with linker (LS-L) left after complete self-processing at TETD23 and TEVD193; a minor amount is also cut at DVVD179 (LS); rare natural SNP variant E35K; source: E. coli BL21(DE3)pLysS, self-processed from full-length Casp6-E35K, purified
T3 sequence (looked up): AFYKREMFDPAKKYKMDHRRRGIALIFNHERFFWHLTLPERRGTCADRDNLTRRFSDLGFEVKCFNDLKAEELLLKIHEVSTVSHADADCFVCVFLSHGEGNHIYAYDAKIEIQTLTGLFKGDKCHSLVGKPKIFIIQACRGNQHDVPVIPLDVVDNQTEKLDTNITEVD

[4] = Ac-VEID-AFC hydrolysis kinetics of recombinant Casp6 variants (Michaelis-Menten); format: biochemical, human; conditions: Ac-VEID-AFC hydrolysis, mean ± SD
Source text: In this study, we investigated how naturally occurring rare missense variants of human CASP6 affect Casp6 activity and structure. […] A34, E35, A109, and T182 are not conserved in 12 human caspases and in Casp6 from different species (Fig. 1a,b). Recombinant Casp6-WT and the four variants were expressed in E. coli, purified, and active site titrated (Fig. S2) for functional analyses. Like Casp6-WT, Casp6 variants, underwent complete self-processing at TETD23, and TEVD193 sites, and slight self-cleavage at the DVVD179 site, generating mainly large subunit with a linker (LS-L), small subunit (SS), and a minor amount of large subunit (LS) (Fig. 1c,d).
as §2

Molecule | % Inhibition with 100 µM compound (fluorescence assay) [1] | IC50 [1] | % Inhibition with 100 µM compound (colorimetric assay) (recombinant active Casp6) | Km [4] | kcat [4] | other results
Nc1nc2c(s1)C(c1ccc(OCc3cccc(F)c3)cc1)CC(=O)N2 (stereo not shown) [Compound S11] | 30.0 ± 6.0% | 289 ± 60.9 µM | 56.3 ± 2.3% | – | – | –
Cc1nn(-c2ccccc2)c2c1C(c1cccc(OCc3ccccc3)c1)C(C#N)=C(N)O2 (stereo not shown) [Compound S13] | 33.8 ± 12.1% | 159 ± 27.7 µM | 41.9 ± 8.2% | – | – | –
O=C(Cn1cc(/C=C2/C(=O)NC(=O)N(Cc3ccco3)C2=O)c2ccccc21)NCC1CCCO1 (stereo not shown) [Compound S10] | 59.7 ± 3.8% | 30.2 ± 6.8 µM | 42.6 ± 3.4% | – | – | –
Casp6-E35K, fully processed (mature, apo) (complex, human, human Caspase-6, large subunit with linker (LS-L) left after complete self-processing at TETD23 and TEVD193; a minor amount is also cut at DVVD179 (LS); rare natural SNP variant E35K; human Caspase-6, small subunit (SS) left after self-processing at TEVD193; One protomer (LS-L plus SS); two protomers form the dimer seen in the crystal; That the His tag sits on the small subunit is surmised from …) chain 1: AFYKREMFDPAKKYKMDHRRRGIALIFNHERFFWHLTLPERRGTCADRDNLTRRFSDLGFEVKCFNDLKAEELLLKIHEVSTVSHADADCFVCVFLSHGEGNHIYAYDAKIEIQTLTGLFKGDKCHSLVGKPKIFIIQACRGNQHDVPVIPLDVVDNQTEKLDTNITEVD chain 2: AASVYTLPAGADFLMCYSVAEGYYSHRETVNGSWYIQDLCEMLGKYGSSLEFTELLTLVNRKVSQRRVDFCKDPSAIGKKQVPCFASMLTKKLHFFPKSN | – | – | – | – | – | binding result [2]: binds
Casp6 small subunit (SS) from self-processed Casp6 (domain or fragment, human, UniProt P55212 194-293, looked up, human Caspase-6, small subunit (SS) left after self-processing at TEVD193; That the His tag sits on this chain is surmised from the plasmid's name; source: E. coli BL21(DE3)pLysS, self-processed from full-length Casp6 variant, purified) AASVYTLPAGADFLMCYSVAEGYYSHRETVNGSWYIQDLCEMLGKYGSSLEFTELLTLVNRKVSQRRVDFCKDPSAIGKKQVPCFASMLTKKLHFFPKSN | – | – | – | – | – | binding result [3]: binds
Casp6-A34E: recombinant rare natural human Casp6 missense variant A34E (protein, UniProt P55212 1-293, looked up, variant A34E) MSSASGLRRGHPAGGEENMTETDAFYKREMFDPEEKYKMDHRRRGIALIFNHERFFWHLTLPERRGTCADRDNLTRRFSDLGFEVKCFNDLKAEELLLKIHEVSTVSHADADCFVCVFLSHGEGNHIYAYDAKIEIQTLTGLFKGDKCHSLVGKPKIFIIQACRGNQHDVPVIPLDVVDNQTEKLDTNITEVDAASVYTLPAGADFLMCYSVAEGYYSHRETVNGSWYIQDLCEMLGKYGSSLEFTELLTLVNRKVSQRRVDFCKDPSAIGKKQVPCFASMLTKKLHFFPKSN | – | – | – | 22.7 ± 0.8 µM | 2.04 ± 0.10 s⁻¹ | –
Casp6-A109T: recombinant rare natural human Casp6 missense variant A109T (protein, left off: His (from the plasmid name pET23b-Casp6-His), end not stated, state not stated) chain 1: AFYKREMFDPAEKYKMDHRRRGIALIFNHERFFWHLTLPERRGTCADRDNLTRRFSDLGFEVKCFNDLKAEELLLKIHEVSTVSHTDADCFVCVFLSHGEGNHIYAYDAKIEIQTLTGLFKGDKCHSLVGKPKIFIIQACRGNQHDVPVIPLDVVDNQTEKLDTNITEVD chain 2: AASVYTLPAGADFLMCYSVAEGYYSHRETVNGSWYIQDLCEMLGKYGSSLEFTELLTLVNRKVSQRRVDFCKDPSAIGKKQVPCFASMLTKKLHFFPKSN | – | – | – | 34.5 ± 1.8 µM | 2.51 ± 0.16 s⁻¹ | –
Casp6-T182S: recombinant rare natural human Casp6 missense variant T182S (protein, UniProt P55212 1-293, looked up, variant T182S) MSSASGLRRGHPAGGEENMTETDAFYKREMFDPAEKYKMDHRRRGIALIFNHERFFWHLTLPERRGTCADRDNLTRRFSDLGFEVKCFNDLKAEELLLKIHEVSTVSHADADCFVCVFLSHGEGNHIYAYDAKIEIQTLTGLFKGDKCHSLVGKPKIFIIQACRGNQHDVPVIPLDVVDNQSEKLDTNITEVDAASVYTLPAGADFLMCYSVAEGYYSHRETVNGSWYIQDLCEMLGKYGSSLEFTELLTLVNRKVSQRRVDFCKDPSAIGKKQVPCFASMLTKKLHFFPKSN | – | – | – | 33.3 ± 1.2 µM | 2.42 ± 0.12 s⁻¹ | –
Casp6-K284A: Casp6 K284A alanine mutant from full-length construct, partially self-processed (protein, UniProt P55212 1-293, looked up, variant K284A, full-length, Casp6 K284A alanine mutant from full-length construct, partially self-processed) MSSASGLRRGHPAGGEENMTETDAFYKREMFDPAEKYKMDHRRRGIALIFNHERFFWHLTLPERRGTCADRDNLTRRFSDLGFEVKCFNDLKAEELLLKIHEVSTVSHADADCFVCVFLSHGEGNHIYAYDAKIEIQTLTGLFKGDKCHSLVGKPKIFIIQACRGNQHDVPVIPLDVVDNQTEKLDTNITEVDAASVYTLPAGADFLMCYSVAEGYYSHRETVNGSWYIQDLCEMLGKYGSSLEFTELLTLVNRKVSQRRVDFCKDPSAIGKKQVPCFASMLTAKLHFFPKSN | – | – | – | 32.6 ± 10.8 µM | 2.0 ± 1.5 s⁻¹ | –
